Reference: patent publication US20260049138A1 (Chugai, published 2026)

Target: T1, CD3ε homodimer protein (human, UniProt P07766 23-126, limits assumed, sulfo-tag or biotin label in the ECL assays; amine-coupled to the chip in SPR)
T1 construct: also called human CD3ε homodimer protein; CD3 (CD3ε)
Test: SPR Biacore T200; CD3ε homodimer on CM4 chip;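 note: Single-residue variant antibodies injected as analyte over CD3ε homodimer immobilized by amine coupling, run at 25 °C in HBS-EP+ buffer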

T1 sequence (P07766 23-126 limits assumed): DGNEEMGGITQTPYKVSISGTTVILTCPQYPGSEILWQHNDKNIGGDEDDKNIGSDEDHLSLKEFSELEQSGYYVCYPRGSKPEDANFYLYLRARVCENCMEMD

Binder	ratio of amounts bound Z=Y/X (altered form / CE115HA000)
CE115HA000 A99Q one-arm antibody (antibody, human IgG1, kappa, L234A L235A, N297A, name in Kabat numbering) heavy: QVQLVESGGGVVQPGRSLRLSCAASGFTFSNAWMHWVRQAPGKGLEWVAQIKAKSNNYATYYAESVKGRFTISRDDSKNSLYLQMNSLKTEDTAVYYCRYVHYGQYYGVDAWGQGTTVTVSSASTKGPSVFPLAPSSKSTSGGTAALGCLVKDYFPEPVTVSWNSGALTSGVHTFPAVLQSSGLYSLSSVVTVPSSSLGTQTYICNVNHKPSNTKVDKKVEPKSCDKTHTCPPCPAPEAAGGPSVFLFPPKPKDTLMISRTPEVTCVVVDVSHEDPEVKFNWYVDGVEVHNAKTKPREEQYASTYRVVSVLTVLHQDWLNGKEYKCKVSNKALPAPIEKTISKAKGQPREPQVYTLPPSRCELTKNQVSLSCAVKGFYPSDIAVEWESNGQPENNYKTTPPVLDSDGSFFLVSKLTVDKSRWQQGNVFSCSVMHEALHNHYTQKSLSLSPDYKDDDDK EPKSSDKTHTCPPCPAPELLGGPSVFLFPPKPKDTLMISRTPEVTCVVVDVSHEDPEVKFNWYVDGVEVHNAKTKPREEQYNSTYRVVSVLTVLHQDWLNGKEYKCKVSNKALPAPIEKTISKAKGQPREPQVCTLPPSRDELTKNQVSLWCLVKGFYPSDIAVEWESNGQPENNYKTTPPVLDSDGSFFLYSKLTVDKSRWQQGNVFSCSVMHEALHNRYTQKSLSLSP light: DIVMTQSPLSLPVTPGEPASISCRSSQSLVHSNRNTYLHWYQQKPGQAPRLLIYKVSNRFSGVPDRFSGSGSGTDFTLKISRVEAEDVGVYYCGQGTQVPYTFGQGTKLEIKRTVAAPSVFIFPPSDEQLKSGTASVVCLLNNFYPREAKVQWKVDNALQSGNSQESVTEQDSKDSTYSLSSTLTLSKADYEKHKVYACEVTHQGLSSPVTKSFNRGEC	0.91
CE115HA000 A102P one-arm antibody (antibody, human IgG1, kappa, L234A L235A, N297A, name in Kabat numbering) heavy: QVQLVESGGGVVQPGRSLRLSCAASGFTFSNAWMHWVRQAPGKGLEWVAQIKAKSNNYATYYAESVKGRFTISRDDSKNSLYLQMNSLKTEDTAVYYCRYVHYGAYYGVDPWGQGTTVTVSSASTKGPSVFPLAPSSKSTSGGTAALGCLVKDYFPEPVTVSWNSGALTSGVHTFPAVLQSSGLYSLSSVVTVPSSSLGTQTYICNVNHKPSNTKVDKKVEPKSCDKTHTCPPCPAPEAAGGPSVFLFPPKPKDTLMISRTPEVTCVVVDVSHEDPEVKFNWYVDGVEVHNAKTKPREEQYASTYRVVSVLTVLHQDWLNGKEYKCKVSNKALPAPIEKTISKAKGQPREPQVYTLPPSRCELTKNQVSLSCAVKGFYPSDIAVEWESNGQPENNYKTTPPVLDSDGSFFLVSKLTVDKSRWQQGNVFSCSVMHEALHNHYTQKSLSLSPDYKDDDDK EPKSSDKTHTCPPCPAPELLGGPSVFLFPPKPKDTLMISRTPEVTCVVVDVSHEDPEVKFNWYVDGVEVHNAKTKPREEQYNSTYRVVSVLTVLHQDWLNGKEYKCKVSNKALPAPIEKTISKAKGQPREPQVCTLPPSRDELTKNQVSLWCLVKGFYPSDIAVEWESNGQPENNYKTTPPVLDSDGSFFLYSKLTVDKSRWQQGNVFSCSVMHEALHNRYTQKSLSLSP light: DIVMTQSPLSLPVTPGEPASISCRSSQSLVHSNRNTYLHWYQQKPGQAPRLLIYKVSNRFSGVPDRFSGSGSGTDFTLKISRVEAEDVGVYYCGQGTQVPYTFGQGTKLEIKRTVAAPSVFIFPPSDEQLKSGTASVVCLLNNFYPREAKVQWKVDNALQSGNSQESVTEQDSKDSTYSLSSTLTLSKADYEKHKVYACEVTHQGLSSPVTKSFNRGEC	0.14
CE115HA000 A99T one-arm antibody (antibody, human IgG1, kappa, L234A L235A, N297A, name in Kabat numbering) heavy: QVQLVESGGGVVQPGRSLRLSCAASGFTFSNAWMHWVRQAPGKGLEWVAQIKAKSNNYATYYAESVKGRFTISRDDSKNSLYLQMNSLKTEDTAVYYCRYVHYGTYYGVDAWGQGTTVTVSSASTKGPSVFPLAPSSKSTSGGTAALGCLVKDYFPEPVTVSWNSGALTSGVHTFPAVLQSSGLYSLSSVVTVPSSSLGTQTYICNVNHKPSNTKVDKKVEPKSCDKTHTCPPCPAPEAAGGPSVFLFPPKPKDTLMISRTPEVTCVVVDVSHEDPEVKFNWYVDGVEVHNAKTKPREEQYASTYRVVSVLTVLHQDWLNGKEYKCKVSNKALPAPIEKTISKAKGQPREPQVYTLPPSRCELTKNQVSLSCAVKGFYPSDIAVEWESNGQPENNYKTTPPVLDSDGSFFLVSKLTVDKSRWQQGNVFSCSVMHEALHNHYTQKSLSLSPDYKDDDDK EPKSSDKTHTCPPCPAPELLGGPSVFLFPPKPKDTLMISRTPEVTCVVVDVSHEDPEVKFNWYVDGVEVHNAKTKPREEQYNSTYRVVSVLTVLHQDWLNGKEYKCKVSNKALPAPIEKTISKAKGQPREPQVCTLPPSRDELTKNQVSLWCLVKGFYPSDIAVEWESNGQPENNYKTTPPVLDSDGSFFLYSKLTVDKSRWQQGNVFSCSVMHEALHNRYTQKSLSLSP light: DIVMTQSPLSLPVTPGEPASISCRSSQSLVHSNRNTYLHWYQQKPGQAPRLLIYKVSNRFSGVPDRFSGSGSGTDFTLKISRVEAEDVGVYYCGQGTQVPYTFGQGTKLEIKRTVAAPSVFIFPPSDEQLKSGTASVVCLLNNFYPREAKVQWKVDNALQSGNSQESVTEQDSKDSTYSLSSTLTLSKADYEKHKVYACEVTHQGLSSPVTKSFNRGEC	0.84
CE115HA000 A99S one-arm antibody (antibody, human IgG1, kappa, L234A L235A, N297A, name in Kabat numbering) heavy: QVQLVESGGGVVQPGRSLRLSCAASGFTFSNAWMHWVRQAPGKGLEWVAQIKAKSNNYATYYAESVKGRFTISRDDSKNSLYLQMNSLKTEDTAVYYCRYVHYGSYYGVDAWGQGTTVTVSSASTKGPSVFPLAPSSKSTSGGTAALGCLVKDYFPEPVTVSWNSGALTSGVHTFPAVLQSSGLYSLSSVVTVPSSSLGTQTYICNVNHKPSNTKVDKKVEPKSCDKTHTCPPCPAPEAAGGPSVFLFPPKPKDTLMISRTPEVTCVVVDVSHEDPEVKFNWYVDGVEVHNAKTKPREEQYASTYRVVSVLTVLHQDWLNGKEYKCKVSNKALPAPIEKTISKAKGQPREPQVYTLPPSRCELTKNQVSLSCAVKGFYPSDIAVEWESNGQPENNYKTTPPVLDSDGSFFLVSKLTVDKSRWQQGNVFSCSVMHEALHNHYTQKSLSLSPDYKDDDDK EPKSSDKTHTCPPCPAPELLGGPSVFLFPPKPKDTLMISRTPEVTCVVVDVSHEDPEVKFNWYVDGVEVHNAKTKPREEQYNSTYRVVSVLTVLHQDWLNGKEYKCKVSNKALPAPIEKTISKAKGQPREPQVCTLPPSRDELTKNQVSLWCLVKGFYPSDIAVEWESNGQPENNYKTTPPVLDSDGSFFLYSKLTVDKSRWQQGNVFSCSVMHEALHNRYTQKSLSLSP light: DIVMTQSPLSLPVTPGEPASISCRSSQSLVHSNRNTYLHWYQQKPGQAPRLLIYKVSNRFSGVPDRFSGSGSGTDFTLKISRVEAEDVGVYYCGQGTQVPYTFGQGTKLEIKRTVAAPSVFIFPPSDEQLKSGTASVVCLLNNFYPREAKVQWKVDNALQSGNSQESVTEQDSKDSTYSLSSTLTLSKADYEKHKVYACEVTHQGLSSPVTKSFNRGEC	0.82
CE115HA000 A99Y one-arm antibody (antibody, human IgG1, kappa, L234A L235A, N297A, name in Kabat numbering) heavy: QVQLVESGGGVVQPGRSLRLSCAASGFTFSNAWMHWVRQAPGKGLEWVAQIKAKSNNYATYYAESVKGRFTISRDDSKNSLYLQMNSLKTEDTAVYYCRYVHYGYYYGVDAWGQGTTVTVSSASTKGPSVFPLAPSSKSTSGGTAALGCLVKDYFPEPVTVSWNSGALTSGVHTFPAVLQSSGLYSLSSVVTVPSSSLGTQTYICNVNHKPSNTKVDKKVEPKSCDKTHTCPPCPAPEAAGGPSVFLFPPKPKDTLMISRTPEVTCVVVDVSHEDPEVKFNWYVDGVEVHNAKTKPREEQYASTYRVVSVLTVLHQDWLNGKEYKCKVSNKALPAPIEKTISKAKGQPREPQVYTLPPSRCELTKNQVSLSCAVKGFYPSDIAVEWESNGQPENNYKTTPPVLDSDGSFFLVSKLTVDKSRWQQGNVFSCSVMHEALHNHYTQKSLSLSPDYKDDDDK EPKSSDKTHTCPPCPAPELLGGPSVFLFPPKPKDTLMISRTPEVTCVVVDVSHEDPEVKFNWYVDGVEVHNAKTKPREEQYNSTYRVVSVLTVLHQDWLNGKEYKCKVSNKALPAPIEKTISKAKGQPREPQVCTLPPSRDELTKNQVSLWCLVKGFYPSDIAVEWESNGQPENNYKTTPPVLDSDGSFFLYSKLTVDKSRWQQGNVFSCSVMHEALHNRYTQKSLSLSP light: DIVMTQSPLSLPVTPGEPASISCRSSQSLVHSNRNTYLHWYQQKPGQAPRLLIYKVSNRFSGVPDRFSGSGSGTDFTLKISRVEAEDVGVYYCGQGTQVPYTFGQGTKLEIKRTVAAPSVFIFPPSDEQLKSGTASVVCLLNNFYPREAKVQWKVDNALQSGNSQESVTEQDSKDSTYSLSSTLTLSKADYEKHKVYACEVTHQGLSSPVTKSFNRGEC	1.59
CE115HA000 A102I one-arm antibody (antibody, human IgG1, kappa, L234A L235A, N297A, name in Kabat numbering) heavy: QVQLVESGGGVVQPGRSLRLSCAASGFTFSNAWMHWVRQAPGKGLEWVAQIKAKSNNYATYYAESVKGRFTISRDDSKNSLYLQMNSLKTEDTAVYYCRYVHYGAYYGVDIWGQGTTVTVSSASTKGPSVFPLAPSSKSTSGGTAALGCLVKDYFPEPVTVSWNSGALTSGVHTFPAVLQSSGLYSLSSVVTVPSSSLGTQTYICNVNHKPSNTKVDKKVEPKSCDKTHTCPPCPAPEAAGGPSVFLFPPKPKDTLMISRTPEVTCVVVDVSHEDPEVKFNWYVDGVEVHNAKTKPREEQYASTYRVVSVLTVLHQDWLNGKEYKCKVSNKALPAPIEKTISKAKGQPREPQVYTLPPSRCELTKNQVSLSCAVKGFYPSDIAVEWESNGQPENNYKTTPPVLDSDGSFFLVSKLTVDKSRWQQGNVFSCSVMHEALHNHYTQKSLSLSPDYKDDDDK EPKSSDKTHTCPPCPAPELLGGPSVFLFPPKPKDTLMISRTPEVTCVVVDVSHEDPEVKFNWYVDGVEVHNAKTKPREEQYNSTYRVVSVLTVLHQDWLNGKEYKCKVSNKALPAPIEKTISKAKGQPREPQVCTLPPSRDELTKNQVSLWCLVKGFYPSDIAVEWESNGQPENNYKTTPPVLDSDGSFFLYSKLTVDKSRWQQGNVFSCSVMHEALHNRYTQKSLSLSP light: DIVMTQSPLSLPVTPGEPASISCRSSQSLVHSNRNTYLHWYQQKPGQAPRLLIYKVSNRFSGVPDRFSGSGSGTDFTLKISRVEAEDVGVYYCGQGTQVPYTFGQGTKLEIKRTVAAPSVFIFPPSDEQLKSGTASVVCLLNNFYPREAKVQWKVDNALQSGNSQESVTEQDSKDSTYSLSSTLTLSKADYEKHKVYACEVTHQGLSSPVTKSFNRGEC	1.48
